Where two headings read alike, the source gives them in different places.
Key:
GBS Rex (Gbs1167) = target: T1, GBS Rex (Gbs1167) (Streptococcus agalactiae, UniProt Q8E565); assay: isothermal titration calorimetry, one-site fit; assay type: binding
T1 construct: native Rex from pET101-Strex in E. coli TUNER (DE3), no tag used in purification; apo form eluted from 5' AMP-Sepharose; homodimer
Description: isothermal titration calorimetry, one-site fit on GBS Rex (Gbs1167)

Rex (Gbs1167) [1] = target: T2, Rex (Gbs1167) (Streptococcus agalactiae NEM316, UniProt Q8E565 1-212); assay: ITC; conditions: NAD+; EMSA: 20 mM Tris pH 8.0, 1 mM EDTA, 75 mM KCl, 1 mM DTT, 10 ug/ml BSA, 10% glycerol, 30 C, 20 min, 30 nM DNA (promoter fragments). ITC: 100 mM potassium …
T2 sequence: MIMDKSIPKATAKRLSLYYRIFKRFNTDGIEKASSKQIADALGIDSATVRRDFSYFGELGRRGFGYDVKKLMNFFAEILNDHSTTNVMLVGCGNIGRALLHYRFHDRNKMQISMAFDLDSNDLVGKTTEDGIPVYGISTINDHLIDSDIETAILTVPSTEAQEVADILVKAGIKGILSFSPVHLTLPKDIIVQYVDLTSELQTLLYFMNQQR

Rex (Gbs1167) [2] = target: T2, Rex (Gbs1167); assay: ITC and EMSA; conditions: apo Rex in ITC; n = 2.2 +/- 0.2 (one dimer per DNA); EMSA: 20 mM Tris pH 8.0, 1 mM EDTA, 75 mM KCl, 1 mM DTT, 10 ug/ml BSA, 10% glycerol, 30 C, 20 min, 30 nM DNA (promoter fragments). ITC: 100 mM potassium …
crystal structure = target: the molecule itself; assay: crystal structure
Rex (Gbs1167) [3] = target: T2, Rex (Gbs1167); assay: X-ray crystallography (2.4 A); NAD+; Mg2+ ion located; EMSA: 20 mM Tris pH 8.0, 1 mM EDTA, 75 mM KCl, 1 mM DTT, 10 ug/ml BSA, 10% glycerol, 30 C, 20 min, 30 nM DNA (promoter fragments). ITC: 100 mM potassium phosphate pH 7.5, 25 C. Crystals: 25% PEG 1500, MIB buffer pH 5.0, 20 C.; conditions: protein: recombinant; tags: none (native, pET101-Strex); chain copies: 2; blunt; self-complementary, 2 strand copies
Rex (Gbs1167) [4] = target: T2, Rex (Gbs1167); assay: EMSA; EMSA: 20 mM Tris pH 8.0, 1 mM EDTA, 75 mM KCl, 1 mM DTT, 10 ug/ml BSA, 10% glycerol, 30 C, 20 min, 30 nM DNA (promoter fragments). ITC: 100 mM potassium phosphate pH 7.5, 25 C. Crystals: 25% PEG 1500, MIB buffer pH 5.0, 20 C.; conditions: protein: recombinant; tags: none (native, pET101-Strex); chain copies: 2; label: 32P; (only forward strand given)
Rex (Gbs1167) [5] = target: T2, Rex (Gbs1167); assay: EMSA; same as native ldh operator; EMSA: 20 mM Tris pH 8.0, 1 mM EDTA, 75 mM KCl, 1 mM DTT, 10 ug/ml BSA, 10% glycerol, 30 C, 20 min, 30 nM DNA (promoter fragments). ITC: 100 mM potassium phosphate pH 7.5, 25 C. Crystals: 25% PEG 1500, MIB buffer pH 5.0, 20 C.; conditions: protein: recombinant; tags: none (native, pET101-Strex); chain copies: 2; label: 32P; (only forward strand given)

## Nc1ncnc2c1ncn2[C@@H]1O[C@H](COP(=O)(O)OP(=O)(O)OP(=O)(O)O)[C@@H](O)[C@H]1O [ATP]
GBS Rex (Gbs1167); read-out: Ka (M^-1)^a x 10^-6 (converted)
  Kd: 250 µM

## NC(=O)C1=CN([C@@H]2O[C@H](COP(=O)(O)OP(=O)(O)OC[C@H]3O[C@@H](n4cnc5c(N)ncnc54)[C@H](O)[C@@H]3O)[C@@H](O)[C@H]2O)C=CC1 [NADH]
GBS Rex (Gbs1167)
  Kd: 0.357 µM

## NC(=O)C1=CN([C@@H]2O[C@H](COP(=O)(O)OP(=O)(O)OC[C@H]3O[C@@H](n4cnc5c(N)ncnc54)[C@H](OP(=O)(O)O)[C@@H]3O)[C@@H](O)[C@H]2O)C=CC1 [NADPH]
GBS Rex (Gbs1167)
  Kd: 143 µM

## NC(=O)c1ccc[n+]([C@@H]2O[C@H](COP(=O)(O)OP(=O)(O)OC[C@H]3O[C@@H](n4cnc5c(N)ncnc54)[C@H](O)[C@@H]3O)[C@@H](O)[C@H]2O)c1 [NAD^+]
GBS Rex (Gbs1167)
  Kd: 76.9 µM

## ROP-DNA used in ITC (sequence not specified)
Rex (Gbs1167) [1]
  binding signal (fold affinity vs apo Rex): 1.35
Rex (Gbs1167) [2]
  Kd: 0.03 µM

B1: Streptococcus agalactiae (GBS) strain NEM316 redox-sensing transcriptional repressor Rex (Gbs1167) (natural protein, Streptococcus agalactiae strain NEM316)
chain: T2 sequence
notes: also called GBS Rex; native Rex; source: E. coli TUNER (DE3), pET101-Strex, purified (Q-Sepharose, Superdex 75, 5' AMP-Sepharose 4B)
Crystal structure
  stoichiometry N: 2

B2: ROP 22-mer palindrome (dsDNA)
DNA 1: AATTGTGAAATATTTCACAATT
DNA 2: AATTGTGAAATATTTCACAATT
Rex (Gbs1167) [3]
  binding result: binds

B3: ldh operator 28 bp (dsDNA)
DNA 1: TTTGTTTGCAAATTTTTTCACATTTTAT
DNA 2: ATAAAATGTGAAAAAATTTGCAAACAAA
Rex (Gbs1167) [4]
  binding result: binds

B4: ldh_m2 (C19T, C21T) (dsDNA)
DNA 1: TTTGTTTGCAAATTTTTTTATATTTTAT
DNA 2: ATAAAATATAAAAAAATTTGCAAACAAA
Rex (Gbs1167) [4]
  binding result: no binding

B5: ldh_m3 (C9T, A10G) (dsDNA)
DNA 1: TTTGTTTGTGAATTTTTTCACATTTTAT
DNA 2: ATAAAATGTGAAAAAATTCACAAACAAA
Rex (Gbs1167) [5]
  binding result: binds

Reference: publication PMC8376106, “NAD^+ pool depletion as a signal for the Rex regulon involved in Streptococcus agalactiae virulence” (PLoS Pathogens, 2021)
